According to US20230416357A1 (UCB, published 2023):
Read-outs that look alike come from different tables or passages of the source.

B1: rabbit 11041 Fab (Fab, V domains shown)
VH: QSVEESGGRLVTPGTPLTLTCTVSGFSLSSYAMIWVRQAPGEGLEWIGIIDIDGSTYYASWAKGRFTISRTSTTVDLKITSPTTGDTATYFCARDRFVGVDIFDPWGPGTLVTVSS
VL: AVVLTQTASPVSAPVGGTVTIKCQASEDIYTNLAWYQQKPGQPPKLLIYWASTLASGVPSRFKGSGSGTEFTLTISDLECADAATYYCQACVYGNSADSRYTFGGGTEVVVK
B2: 11041gL13gH14 Fab (Fab, V domains shown)
VH: EVQLVESGGGLVQPGGSLRLSCAVSGFSLSSYAMIWVRQAPGKGLEWIGIIDIEGSTYYASWAKGRFTISRDNSKNTVYLQMNSLRAEDTAVYYCARDRFVGVDIFDPWGQGTLVTVSS
VL: AVQLTQSPSSLSASVGDRVTITCQASEDIYTNLAWYQQKPGKAPKLLIYWASTLASGVPSRFSGSGSGTDFTLTISSLQPEDFATYYCQASVYGNAADSRYTFGGGTKVEIKR
notes: Humanized Fab; also called VR11041

What was measured:
[1] = target: T1, Human IL22 (human, UniProt Q9GZX6 34-179); test: cell-based or functional assay
T1 sequence: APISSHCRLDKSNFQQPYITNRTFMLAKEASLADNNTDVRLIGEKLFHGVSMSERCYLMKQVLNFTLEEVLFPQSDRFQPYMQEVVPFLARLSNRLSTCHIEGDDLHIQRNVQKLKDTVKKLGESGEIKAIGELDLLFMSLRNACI

[2] = target: T1, Human IL22; test: cell-based or functional assay; remark: listed apart in the source
[3] = target: T1, Human IL22; test: SPR Biacore 8K; single experiment
[4] = target: T1, Human IL22; test: cell-based or functional assay; remark: listed apart in the source
[5] = target: T1, Human IL22; test: SPR Biacore T200; antibody captured on anti-human Fab (280 RU), IL22 injected at 20 nM

Binder | IC50 (M), Geomean; COLO205 IL-10 release assay [1] [M] | IC50 (read off the curve), inhibition of IL-22-induced S100A7 release from human primary keratinocytes (NHEK) [2] [pM] | Kd [3] [pM] | IC50 (M), Geomean; COLO205 IL-10 release assay [4] [M] | IL22 Binding at 20 nM (RU) [5] [RU]
B1 | 5.68e-11 |  |  |  | 
B2 |  | ~10000 | < 100 | 4.27e-11 | 40
